T1: PpZTA1 (zeta crystallin / quinone oxidoreductase), recombinant (Pichia pastoris, UniProt F2QTB9 1-336)
T1 sequence: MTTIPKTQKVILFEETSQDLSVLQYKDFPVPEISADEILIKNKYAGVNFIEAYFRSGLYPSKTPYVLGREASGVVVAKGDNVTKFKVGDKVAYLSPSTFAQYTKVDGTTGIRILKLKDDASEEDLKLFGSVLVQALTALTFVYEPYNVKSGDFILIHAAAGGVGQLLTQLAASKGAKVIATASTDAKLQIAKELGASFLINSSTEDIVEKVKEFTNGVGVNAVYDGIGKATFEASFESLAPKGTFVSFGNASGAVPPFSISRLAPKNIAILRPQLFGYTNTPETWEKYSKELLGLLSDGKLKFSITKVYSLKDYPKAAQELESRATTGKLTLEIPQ


What was measured:
[1] = biological target: recombinant Pichia pastoris zeta crystallin (PpZTA1) (Pichia pastoris); experiment: SEC
[2] = biological target: T1, PpZTA1 (zeta crystallin / quinone …); experiment: EMSA

Row | stoichiometry N [1] | Molecule | Kd [2] [nM]
1 | 2 | recombinant Pichia pastoris zeta crystallin (PpZTA1) (natural protein) | 
2 |  | 229 (ssDNA) DNA: GAATACTGCTGATAGCCTAACGTTCATGATCAAAATTTAACTGTTCTAACCCCT | 0.2
3 |  | 174 (ssDNA) DNA: ACTTGACAGCAATATATAAACAGAAGGAAGCTGCCCTGTCTTAAACCTTTTTTTTTATCA | 0.1
4 |  | 288 (ssDNA) DNA: ACCCGCTTTTTGGATGATTATGCATTGTCTCCACATTGTATGCTTCCAAGATTCTGGTGG | 0.9
